Usually stoichiometry N stands for a count of units in the complex or per binding partner.

Experimental findings from PMC3995651 are described below.

What all share (assay): cross-linking; BS3 (0.5 or 5 mM), 5 µM protein in solution without liposomes, 20 mM Hepes, 150 mM NaCl, pH 7.4; 30 min room temperature, then 2 min 37°C with BS3; SDS-PAGE, Coomassie; step: monomers to dimer
Test [1] concerns the target BIN1 N-BAR domain (1-254) R154Q (human).
The target in test [2] is BIN1 N-BAR domain (1-254) D151N (human).
Test [3] deals with BIN1 N-BAR domain (1-254) K35N (human).
Test [4] has as its target BIN1 N-BAR domain (1-254), wild type (human).

Substance “BIN1 N-BAR domain (1-254) R154Q (domain or fragment)” displayed a stoichiometry N in test [1] of 2.

For the substance “BIN1 N-BAR domain (1-254) D151N (domain or fragment)”, the stoichiometry N in test [2] is 2.

In turn, “BIN1 N-BAR domain (1-254) K35N (domain or fragment)” gave a stoichiometry N in test [3] of 2.

On to “BIN1 N-BAR domain (1-254), wild type (domain or fragment)”, for which the stoichiometry N in test [4] is 2.
